Source: US7358040B2, “MRE 11: modulation of cellular proliferation” (Rigel Pharmaceuticals, Incorporated, priority 2001, dated 2008)
Numbering of substitutions follows the chain as printed. Names and notes keep the numbering of the source.

Experiments:
Assay type in all cases: cell-based
HeLa cells [1] = assay: overexpression / GFP positivity proliferation assay in HeLa cells
Excerpt: (§1) As described below, the present inventors identified MRE11 in a yeast two hybrid assay, using PCNA as bait. Another molecule, NBS1, was identified in the two-hybrid assay as a PCNA-binding protein, as NBS1 binds the mammalian homolog of yeast RAD50, which also binds to MRE11 (see, e.g., Petrini, Am. J Hum. Genet. 64:1264-1269 (1999); Kim et al., J. Biol. Chem. 271:29255-29264 (1996); see also GenBank Accession number XP—034864 for a protein sequence of human RAD50 and Accession number XM—034864 for a nucleic acid sequence of human RAD50; see also Example 1)). NBS1 therefore bound to the RAD50/MRE11 complex, as well as to PCNA. As shown in FIGS. 8-15, inhibition of MRE11 or overexpression of an MRE11 mutant is antiproliferative in tumor cells and HeLa cells but not in normal cells (using, e.g., GFP positivity assays, cell tracker assays, and antisense assays).
(§2) In another embodiment, MRE11 protein is expressed in a cell, and functional, e.g., physical and chemical or phenotypic, changes are assayed to identify MRE11 and modulators of cellular proliferation, e.g., tumor cell proliferation. Cells expressing MRE11 proteins can also be used in binding assays and enzymatic assays. Any suitable functional effect can be measured, as described herein. […]

A549 tumor cells [2] = assay: overexpression / GFP positivity proliferation assay in A549 tumor cells
Excerpt: as §1, §2

A549 tumor cells [3] = assay: cell tracker assay in A549 tumor cells
Excerpt: as §1, §2

HeLa cells [4] = assay: bleomycin chemosensitization study in HeLa cells
Excerpt: as §1

normal HMEC cells = assay: bleomycin chemosensitization study in normal HMEC cells
Excerpt: as §1

A549 tumor cells [5] = assay: bleomycin chemosensitization study in A549 tumor cells
Excerpt: as §1

normal cells [6] = assay: overexpression proliferation assay in normal cells
Excerpt: as §1, §2

normal cells [7] = assay: cell tracker assay in normal cells
Excerpt: as §1, §2

B1: GFP-fused MRE11 H129N mutant: GFP-fused dominant negative H129N mutant of MRE11 nuclease, overexpressed in cells for target validation (protein, UniProt P49959 2-708, looked up, variant H129N)
Double-strand break repair …: STADALDDENTFKILVATDIHLGFMEKDAVRGNDTFVTLDEILRLAQENEVDFILLGGDLFHENKPSRKTLHTCLELLRKYCMGDRPVQFEILSDQSVNFGFSKFPWVNYQDGNLNISIPVFSIHGNNDDPTGADALCALDILSCAGFVNHFGRSMSVEKIDISPVLLQKGSTKIALYGLGSIPDERLYRMFVNKKVTMLRPKEDENSWFNLFVIHQNRSKHGSTNFIPEQFLDDFIDLVIWGHEHECKIAPTKNEQQLFYISQPGSSVVTSLSPGEAVKKHVGLLRIKGRKMNMHKIPLHTVRQFFMEDIVLANHPDIFNPDNPKVTQAIQSFCLEKIEEMLENAERERLGNSHQPEKPLVRLRVDYSGGFEPFSVLRFSQKFVDRVANPKDIIHFFRHREQKEKTGEEINFGKLITKPSEGTTLRVEDLVKQYFQTAEKNVQLSLLTERGMGEAVQEFVDKEEKDAIEELVKYQLEKTQRFLKERHIDALEDKIDEEVRRFRETRQKNTNEEDDEVREAMTRARALRSQSEESASAFSADDLMSIDLAEQMANDSDDSISAATNKGRGRGRGRRGGRGQNSASRGGSQRGRADTGLETSTRSRNSKTAVSASRNMSIIDAFKSTRQQPSRNVTTKNYSEVIEVDESDVEEDIFPTTSKTDQRWSSTSSSKIMSQSQVSKGVDFESSEDDDDDPFMNTSSLRRNRR
modifications: GFP fusion
notes: GFP-fused dominant negative H129N mutant of MRE11 nuclease, overexpressed in cells for target validation
HeLa cells [1]
  antiproliferative activity on overexpression: antiproliferative
A549 tumor cells [2]
  antiproliferative activity on overexpression: antiproliferative
A549 tumor cells [3]
  antiproliferative activity, cell tracker assay: antiproliferative

B2: GFP-MRE11 H217Y mutant: GFP-fused MRE11 H217Y mutant overexpressed in cells (protein, UniProt P49959 2-708, looked up, variant H217Y)
Double-strand break repair …: B1 Double-strand break repair … with N128H, H216Y
modifications: GFP fusion
notes: GFP-fused MRE11 H217Y mutant overexpressed in cells
HeLa cells [4]
  sensitivity to bleomycin treatment on overexpression: enhances sensitivity
Normal HMEC cells
  sensitivity to bleomycin treatment on overexpression: does not enhance sensitivity
A549 tumor cells [5]; A549 tumor cells
  sensitivity to bleomycin treatment on overexpression: enhances sensitivity

B3: MRE11 H129N mutant: MRE11 H129N mutant expressed using IRES GFP (not fused) (protein, UniProt P49959 2-708, looked up, variant H129N)
Double-strand break repair …: B1 Double-strand break repair …
A549 tumor cells [3]
  antiproliferative activity, cell tracker assay: antiproliferative

B4: MRE11 wild type: wild-type human MRE11 protein (SEQ ID NO:2) overexpressed in cells (protein, listed as Homo sapiens)
chain: MSTADALDDENTFKILVATDIHLGFMEKDAVRGNDTFVTLDEILRLAQENEVDFILLGGDLFHENKPSRKTLHTCLELLRKYCMGDRPVQFEILSDQSVNFGFSKFPWVNYQDGNLNISIPVFSIHGNHDDPTGADALCALDILSCAGFVNHFGRSMSVEKIDISPVLLQKGSTKIALYGLGSIPDERLYRMFVNKKVTMLRPKEDENSWFNLFVIHQNRSKHGSTNFIPEQFLDDFIDLVIWGHEHECKIAPTKNEQQLFYISQPGSSVVTSLSPGEAVKKHVGLLRIKGRKMNMHKIPLHTVRQFFMEDIVLANHPDIFNPDNPKVTQAIQSFCLEKIEEMLENAERERLGNSHQPEKPLVRLRVDYSGGFEPFSVLRFSQKFVDRVANPKDIIHFFRHREQKEKTGEEINFGKLITKPSEGTTLRVEDLVKQYFQTAEKNVQLSLLTERGMGEAVQEFVDKEEKDAIEELVKYQLEKTQRFLKERHIDALEDKIDEEVRRFRETRQKNTNEEDDEVREAMTRARALRSQSEESASAFSADDLMSIDLAEQMANDSDDSISAATNKGRGRGRGRRGGRGQNSASRGGSQRGRADTGLETSTRSRNSKTAVSASRNMSIIDAFKSTRQQPSRNVTTKNYSEVIEVDESDVEEDIFPTTSKTDQRWSSTSSSKIMSQSQVSKGVDFESSEDDDDDPFMNTSSLRRNRR
modifications: human MRE11 meiotic recombination 11 homolog A
Normal cells [6]
  antiproliferative activity on overexpression: not antiproliferative
A549 tumor cells [5]; tumor cells expressing the protein, 48 hours after bleomycin treatment
  selective sensitization after bleomycin treatment: no selective sensitization
Normal cells [7]
  antiproliferative activity, cell tracker assay: no antiproliferative activity
